From patent US20220340657A1 (L AND L BIO CO LTD NINGBO CHINA, published 2022)

Key:
human PD-1 (hFc/his tag) [1] = target: T1, human PD-1 (hFc/his tag) (human, UniProt Q15116 21-167); test: ELISA on human PD-1, sample kept at 37 C for 10 days
T1 construct: range 21-167; not shown: hFc or his tag

human PD-1 (hFc/his tag) [2] = target: T1, human PD-1 (hFc/his tag); test: ELISA on human PD-1, sample stored at -80 C for 60 days
human PD-1 (hFc/his tag) [3] = target: T1, human PD-1 (hFc/his tag); test: ELISA on human PD-1, sample kept at 37 C for 5 days
human LAG-3-his [4] = target: T2, human LAG-3-his (human, UniProt P18627 23-422); test: ELISA on human LAG3, sample kept at 37 C for 5 days
T2 construct: range 23-422; also called hLAG-3-his; hLAG-3
T2 sequence: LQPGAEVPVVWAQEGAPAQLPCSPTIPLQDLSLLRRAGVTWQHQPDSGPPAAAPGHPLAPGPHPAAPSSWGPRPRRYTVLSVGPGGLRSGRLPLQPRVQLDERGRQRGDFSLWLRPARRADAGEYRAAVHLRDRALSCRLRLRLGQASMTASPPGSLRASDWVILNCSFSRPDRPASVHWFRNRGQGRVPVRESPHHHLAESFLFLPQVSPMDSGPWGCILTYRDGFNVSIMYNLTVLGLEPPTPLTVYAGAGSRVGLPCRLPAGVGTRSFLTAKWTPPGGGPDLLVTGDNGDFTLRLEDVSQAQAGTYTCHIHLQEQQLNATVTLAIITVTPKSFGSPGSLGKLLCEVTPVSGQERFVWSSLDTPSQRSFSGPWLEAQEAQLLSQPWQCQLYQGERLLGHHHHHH

human LAG-3-his [5] = target: T2, human LAG-3-his; test: ELISA on human LAG3, sample stored at -80 C for 60 days; sample stored at -80 C for 60 days (reference value in brackets)
human LAG-3-his [6] = target: T2, human LAG-3-his; test: ELISA on human LAG3, sample kept at 37 C for 10 days
human LAG-3-his [7] = target: T2, human LAG-3-his; test: ELISA on coated human LAG-3, OD450 (Example 3, Example 13) [panel a]
human PD-1 (hFc/his tag) [8] = target: T1, human PD-1 (hFc/his tag); test: blocking of PD-1 binding to PD-L1
human LAG-3-his [9] = target: T2, human LAG-3-his; test: ELISA on human LAG-3
human PD-1 (hFc/his tag) [10] = target: T1, human PD-1 (hFc/his tag); test: ELISA on coated human PD-1, OD450 (Example 13) [panel b]
Bio-LAG-his = target: T3, Bio-LAG-his (UniProt P18627 23-450, biotin-labeled); test: double-sandwich ELISA: plate coated with PD-1, bispecific titrated, detected with Bio-LAG-his
T3 construct: Detection reagent of the double-sandwich ELISA; also called biotin-labeled LAG-3-his (ACROBiosystems); not shown: his tag of the bought product
T3 sequence (looked up): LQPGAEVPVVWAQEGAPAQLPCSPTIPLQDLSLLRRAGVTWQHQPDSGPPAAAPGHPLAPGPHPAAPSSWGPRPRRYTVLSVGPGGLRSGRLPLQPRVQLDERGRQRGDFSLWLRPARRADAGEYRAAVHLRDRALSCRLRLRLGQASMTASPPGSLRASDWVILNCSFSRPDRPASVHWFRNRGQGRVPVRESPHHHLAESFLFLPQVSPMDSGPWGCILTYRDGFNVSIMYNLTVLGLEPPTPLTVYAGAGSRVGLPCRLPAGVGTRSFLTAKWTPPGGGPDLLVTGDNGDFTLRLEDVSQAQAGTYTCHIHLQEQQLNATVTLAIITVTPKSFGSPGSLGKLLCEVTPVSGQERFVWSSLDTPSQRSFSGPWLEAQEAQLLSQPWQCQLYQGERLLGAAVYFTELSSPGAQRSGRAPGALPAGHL
Description: Finally, 50 μl/well of 1M H₂SO₄ was added to stop the reaction.

bio-LAG3-mFc [11] = target: T4, bio-LAG3-mFc (human, UniProt P18627 23-450, biotin-labelled); test: blocking of LAG3 binding to Daudi cells
T4 construct: also called hLAG-3
T4 sequence (looked up): T3 sequence (looked up)
Description: The Daudi cell line (ATCC, CCL-213) was expanded and seeded into 96-well microplate at a density of 2×10⁵ cells/well, and then centrifuged at 1600 rpm for 10 min; thereafter the cells were fixed with 100 μl/well of a fixative solution for immunostaining (Shanghai Beyotime Biotechnology Co., Ltd., Cat. No.: P0098) for half an hour at room temperature. After washing with PBS (BasalMedia Biology, Cat. No.: B320) once, 5% milk was added with 230 μl per well, and the microplate was incubated for 2 hours at 37° C. for blocking, then was washed three times with PBST. […] The microplate was then incubated for 1 hour at 37° C. and washed 5 times with PBST. 50 μl/well of 1:1000 diluted streptavidin-HRP secondary antibody (GenScript, Cat. No.: M00091) was added to the microplate and incubated for 1 hour at 37° C. After washing the microplate 5 times with PBST, 50 μl/well TMB (Surmodic, Cat. No.: TTMB-1000-01) was added to the microplate for color development, and 50 μl/well 1M H₂SO₄ was added to stop the reaction. The microplate was then read by a microplate reader (MuitiskanGo Thermo, model 511919200), and the data were analyzed using GraphPad prism 5.

human PD-1 (hFc/his tag) [12] = target: T1, human PD-1 (hFc/his tag); test: ELISA on human PD-1
human LAG-3-his [13] = target: T2, human LAG-3-his; test: ELISA on human LAG3, sample stored at -80 C for 60 days
bio-LAG3-mFc [14] = target: T4, bio-LAG3-mFc; test: blocking ELISA, LAG-3 on Daudi cells
bio-LAG3-mFc [15] = target: T4, bio-LAG3-mFc; test: blocking ELISA, LAG-3 on Daudi cells; remark: listed apart in the source
bio-LAG3-mFc [16] = target: T4, bio-LAG3-mFc; test: blocking ELISA on fixed Daudi cells: antibody titrated against bio-LAG3-mFc binding to Daudi cells (MHC II), streptavidin-HRP, OD450 (Example 4) [panel b]
human LAG-3-his [17] = target: T2, human LAG-3-his; test: ELISA on hLAG-3
Description: (§1) After discarding the liquid, a blocking solution of 5% skimmed milk (Bright skimmed milk powder) diluted with PBS was added at 230 μl per well, followed by incubating at 37° C. for 3 hours or 4° C. overnight (16-18 hours) for blocking. Subsequently, the blocking solution was discarded, and the micropiate was washed 5 times with PBST buffer (pH 7.4 PBS containing 0.05% tweeen-20). Then 50 μl/well of the supernatant (containing the antibody to be tested) or a starting concentration of 10 μg/ml of the antibody to be tested, which was diluted 5 times in gradient, was added, followed by incubating the mixture for 1 hour at 37° C. […] After washing the microplate 5 times with PBST, 50 μl/well TIMB chromogenic substrate (KPL, Cat. No.: 52-00-03) was added, and then incubated for […] at room temperature. Finally, 50 μl/well of 1 M H₂SO₄ was added to stop the reaction. The absorbance value at 450 nm was read by […] GO microplate reader (ThermoFisher, Cat. No.: 51119200). The clones with high affinity were selected according to the OD value or the EC₅₀ value was calculated (for antibodies with known concentrations).

human LAG-3-his [18] = target: T2, human LAG-3-his; test: ELISA on hLAG-3; remark: listed apart in the source
Description: as §1

human LAG-3-his [19] = target: T2, human LAG-3-his; test: ELISA on coated human LAG-3-his, anti-human HRP, OD450 (Example 3) [panel a]
Description: as §1

T1 sequence (Q15116 21-167, form in doubt): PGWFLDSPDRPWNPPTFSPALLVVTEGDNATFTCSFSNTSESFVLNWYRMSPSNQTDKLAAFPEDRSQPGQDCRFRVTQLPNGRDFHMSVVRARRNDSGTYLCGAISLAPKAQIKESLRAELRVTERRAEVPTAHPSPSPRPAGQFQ

B1: bispecific antibody (SBody) LB2371 (bispecific antibody, human IgG4 S228P, kappa)
light: EIVLTQSPATLSLSPGERATLSCRASKGVSTSGYSYLHWYQQKPGQAPRLLIYLASYLESGVPARFSGSGSGTDFTLTISSLEPEDFAVYYCQHSRDLPLTFGGGTKVEIKRTVAAPSVFIFPPSDEQLKSGTASVVCLLNNFYPREAKVQWKVDNALQSGNSQESVTEQDSKDSTYSLSSTLTLSKADYEKHKVYACEVTHQGLSSPVTKSFNRGEC
heavy: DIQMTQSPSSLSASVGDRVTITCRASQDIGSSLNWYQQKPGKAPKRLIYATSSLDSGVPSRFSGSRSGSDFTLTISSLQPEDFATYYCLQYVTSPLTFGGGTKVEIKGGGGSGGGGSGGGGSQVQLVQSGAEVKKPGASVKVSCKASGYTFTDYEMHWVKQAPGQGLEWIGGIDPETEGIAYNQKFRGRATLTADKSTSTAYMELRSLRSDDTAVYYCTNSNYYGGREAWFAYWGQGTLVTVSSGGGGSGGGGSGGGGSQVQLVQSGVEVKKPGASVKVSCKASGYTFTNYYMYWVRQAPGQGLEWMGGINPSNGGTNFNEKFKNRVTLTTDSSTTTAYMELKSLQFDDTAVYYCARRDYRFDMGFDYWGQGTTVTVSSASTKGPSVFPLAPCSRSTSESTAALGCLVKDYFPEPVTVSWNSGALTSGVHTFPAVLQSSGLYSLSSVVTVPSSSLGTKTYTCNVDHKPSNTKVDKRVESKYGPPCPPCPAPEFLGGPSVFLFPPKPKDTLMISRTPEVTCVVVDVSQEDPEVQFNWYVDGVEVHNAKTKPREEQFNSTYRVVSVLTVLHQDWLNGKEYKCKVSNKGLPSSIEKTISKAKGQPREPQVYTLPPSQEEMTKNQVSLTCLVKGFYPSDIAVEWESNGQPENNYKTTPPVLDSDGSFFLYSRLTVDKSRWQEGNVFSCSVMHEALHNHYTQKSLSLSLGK
notes: Ab2317VL-(G4S)3-Ab2317VH-(G4S)3-PemVH-Hc (hIgG4)
EC50 (human PD-1 (hFc/his tag) [1]): 0.324 nM | EC50 (human PD-1 (hFc/his tag) [2]): 0.227 nM | EC50 (human PD-1 (hFc/his tag) [3]): 0.293 nM | EC50 (human LAG-3-his [4]): 0.251 nM | EC50 (human LAG-3-his [5]): 0.298 nM | EC50 (human LAG-3-his [6]): 0.392 nM | EC50 (read off the curve) (human LAG-3-his [7]): ~0.2 nM | IC50 (human PD-1 (hFc/his tag) [8]): 0.268 nM | EC50 (human LAG-3-his [9]): 0.179 nM | EC50 (read off the curve) (human PD-1 (hFc/his tag) [10]): ~0.1 nM | EC50 (Bio-LAG-his): 1.09 nM | IC50 (bio-LAG3-mFc [11]): 77.5 nM | EC50 (human PD-1 (hFc/his tag) [12]): 0.128 nM | EC50 (human LAG-3-his [13]): 0.298 nM

B2: chimeric antibody mab23c (antibody, human IgG4 S228P, kappa, V domains shown)
VH: QVQLQQSGAELVRPGASVTLSCKASGYTFTDYEMHWVKQTPVHGLEWIGGIDPETEGIAYNQKFRGKAILTADKSSITAYMELRSLTSEDSAVYYCTNSNYYGGREAWFAYWGQGTLVTVSG
VL: DIQMIQSPSSLSASLGERVSLTCRASQDIGSSLNWLQQEPDGTIKRLIYATSSLDSGVPKRFSGSRSGSDYSLTISSLESEDFVDYYCLQYVTSPLTFGAGTKLELKR
notes: hIgG4
IC50 (bio-LAG3-mFc [14]): 1.55 nM | IC50 (bio-LAG3-mFc [15]): 2.3 nM | fold better IC50 than Ref (bio-LAG3-mFc [15]): ~4 fold | IC50 (read off the curve) (bio-LAG3-mFc [16]): ~2 nM | EC50 (human LAG-3-his [17]): 0.41 nM | EC50 (human LAG-3-his [18]): 0.166 nM | EC50 (read off the curve) (human LAG-3-his [19]): ~0.4 nM
